Target: ClpXP (ClpX6P14) with Cy3-labeled ClpPQ48C, immobilized through biotinylated ClpX6 (Escherichia coli) (UniProt P0A6H1)
Experiment: single-molecule TIRF fluorescence with alternating laser excitation

Question: For “Titin-I27 V13P with the C-terminal ssrA tag, Cy5-labeled at Cys (domain or fragment)”, which total dwell time (Δτ, bound and processed) is on record?
Answer: The total dwell time (Δτ, bound and processed) was 7.3 s.

Question: With “Titin-I27 wild-type with the C-terminal ssrA tag, Cy5-labeled at Cys (domain or fragment)” as the substance, how does the total dwell time (Δτ, bound and processed) read?
Answer: The total dwell time (Δτ, bound and processed) was 7.5 s.

From paper doi:10.1101/226712
